Experimental data as given in US20260042850A1.

Molecular target: Insulin
Assay: polyreactivity ELISA on insulin (and dsDNA)

Sequence of Insulin (P01308 25-54, chain 1 of 2): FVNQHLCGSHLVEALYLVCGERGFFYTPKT
Sequence of Insulin (P01308 90-110, chain 2 of 2): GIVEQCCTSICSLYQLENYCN

Substance	reactivity score
Bococizumab analogue (antibody)	> 15
Briakinumab analogue (antibody)	> 15
